This is an account of results in the supplement of paper PMC5998384.

Data set [1] has as its system HeLa Kyoto. As to the kind of experiment: melting temperature (median over replicates), in situ; higher = more thermally stable.
For data set [2], the system named is HeLa Kyoto. Nature of the data set: solubility change mitosis vs G1/S (difference of NP-40 vs SDS log2 ratios) (log2 ratio difference); higher = more soluble in mitosis.
Data set [3] deals with HeLa Kyoto. Nature of the data set: thermal stability score vs G1/S (z-score of summed log2 fold changes over temperatures); higher = more thermally stable than in G1/S.
Data set [4] deals with HeLa Kyoto. As to the kind of experiment: solubility in G1/S (NP-40 vs SDS abundance) (log2 ratio); higher = more soluble. Particulars: cell cycle stage: G1/S.
[5] abbreviates: cell cycle stage: early G1 (4.5 h after nocodazole release).
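Throughout, for melting temperature (median over replicates), in situ: HeLa Kyoto cells synchronized by double thymidine or nocodazole block, proteins quantified by TMT10plex mass spectrometry, three independent biological replicates.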
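Throughout, for solubility change mitosis vs G1/S (difference of NP-40 vs SDS log2 ratios): synchronized HeLa Kyoto cells (double thymidine block for G1/S, nocodazole release for mitosis), protein amounts in NP-40 versus SDS lysates quantified by mass spectrometry, three biological replicates.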
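Throughout, for solubility in G1/S (NP-40 vs SDS abundance): HeLa Kyoto cells arrested at G1/S by double thymidine block, proteins quantified by TMT10plex mass spectrometry in mild NP-40 versus SDS extracts, three biological replicates.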
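Throughout, for thermal stability score vs G1/S (z-score of summed log2 fold changes over temperatures): synchronized HeLa Kyoto cells, proteins quantified by TMT10plex mass spectrometry, three biological replicates, mitosis taken 0.5 h after nocodazole release, G1/S directly after double thymidine block.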

Consider “MDVERLQEALKDFEKRGKKEVCPVLDQFLCHVAKTGETMIQWSQFKGYFIFKLEKVMDDFRTSAPEPRGPPNPNVEYIPFDEMKERILKIVTGFNGIPFTIQRLCELLTDPRRNYTGTDKFLRGVEKNVMVVSCVYPSSEKNNSNSLNRMNGVMFPGNSPSYTERSNINGPGTPRPLNRPKVSLSAPMTTNGLPESTDSKEANLQQNEEKNHSDSSTSESEVSSVSPLKNKHPDEDAVEAEGHEVKRLRFDKEGEVRETASQTTSSEISSVMVGETEASSSSQDKDKDSRCTRQHCTEEDEEEDEEEEEESFMTSREMIPERKNQEKESDDALTVNEETSEENNQMEESDVSQAEKDLLHSEGSENEGPVSSSSSDCRETEELVGSNSSKTGEILSESSMENDDEATEVTDEPMEQD [PPP4R2]”, for which the figures for the melting temperature in the data set on HeLa Kyoto [1] (cell cycle stage: G1/S) and in the data set with HeLa Kyoto [1] (cell cycle stage: mitosis) were 51.2 °C and 51.7 °C, respectively. Besides, the “solubility change mitosis (log2)” value in the data set on HeLa Kyoto [2] was -0.111. For the same sequence, the thermal stability score in the data set with HeLa Kyoto [3] (setting [5]) is -0.271; with HeLa Kyoto [3] (cell cycle stage: mitosis), -0.968. Moreover, the “solubility in G1/S (log2)” value with HeLa Kyoto [4] is 0.000183.
“MDVFLMIRRHKTTIFTDAKESSTVFELKRIVEGILKRPPDEQRLYKDDQLLDDGKTLGECGFTSQTARPQAPATVGLAFRADDTFEALCIEPFSSPPELPDVMKPQDSGSSANEQAVQ [TCEB2]”: the melting temperature amounted to 52 °C in the data set with HeLa Kyoto [1] (cell cycle stage: G1/S) and 51.8 °C in the data set on HeLa Kyoto [1] (cell cycle stage: mitosis). The “solubility change mitosis (log2)” value in the data set on HeLa Kyoto [2] is 0.00166. Moreover, the thermal stability score in the data set with HeLa Kyoto [3] (setting [5]) is 1.2; with HeLa Kyoto [3] (cell cycle stage: mitosis) it was -0.75. Moreover, the “solubility in G1/S (log2)” value in the data set on HeLa Kyoto [4] is 0.109.
With “MDVLAEANGTFALNLLKTLGKDNSKNVFFSPMSMSCALAMVYMGAKGNTAAQMAQILSFNKSGGGGDIHQGFQSLLTEVNKTGTQYLLRMANRLFGEKSCDFLSSFRDSCQKFYQAEMEELDFISAVEKSRKHINTWVAEKTEGKIAELLSPGSVDPLTRLVLVNAVYFRGNWDEQFDKENTEERLFKVSKNEEKPVQMMFKQSTFKKTYIGEIFTQILVLPYVGKELNMIIMLPDETTDLRTVEKELTYEKFVEWTRLDMMDEEEVEVSLPRFKLEESYDMESVLRNLGMTDAFELGKADFSGMSQTDLSLSKVVHKSFVEVNEEGTEAAAATAAIMMMRCARFVPRFCADHPFLFFIQHSKTNGILFCGRFSSP [SERPINB6]”, the melting temperature was 55.8 °C in the data set with HeLa Kyoto [1] (cell cycle stage: G1/S) and 56.1 °C in the data set on HeLa Kyoto [1] (cell cycle stage: mitosis). Also, in the data set with HeLa Kyoto [2], the “solubility change mitosis (log2)” value is -0.136. Besides, the values for the thermal stability score in the data set on HeLa Kyoto [3] (setting [5]) and with HeLa Kyoto [3] (cell cycle stage: mitosis) were -1.49 and -2.35, respectively. The “solubility in G1/S (log2)” value in the data set with HeLa Kyoto [4] came to 0.174.
With “MDVLVSECSARLLQQEEEIKSLTAEIDRLKNCGCLGASPNLEQLQEENLKLKYRLNILRKSLQAERNKPTKNMINIISRLQEVFGHAIKAAYPDLENPPLLVTPSQQAKFGDYQCNSAMGISQMLKTKEQKVNPREIAENITKHLPDNECIEKVEIAGPGFINVHLRKDFVSEQLTSLLVNGVQLPALGENKKVIVDFSSPNIAKEMHVGHLRSTIIGESISRLFEFAGYDVLRLNHVGDWGTQFGMLIAHLQDKFPDYLTVSPPIGDLQVFYKESKKRFDTEEEFKKRAYQCVVLLQGKNPDITKAWKLICDVSRQELNKIYDALDVSLIERGESFYQDRMNDIVKEFEDRGFVQVDDGRKIVFVPGCSIPLTIVKSDGGYTYDTSDLAAIKQRLFEEKADMIIYVVDNGQSVHFQTIFAAAQMIGWYDPKVTRVFHAGFGVVLGEDKKKFKTRSGETVRLMDLLGEGLKRSMDKLKEKERDKVLTAEELNAAQTSVAYGCIKYADLSHNRLNDYIFSFDKMLDDRGNTAAYLLYAFTRIRSIARLANIDEEMLQKAARETKILLDHEKEWKLGRCILRFPEILQKILDDLFLHTLCDYIYELATAFTEFYDSCYCVEKDRQTGKILKVNMWRMLLCEAVAAVMAKGFDILGIKPVQRM [RARS]”, the melting temperature came out at 49 °C in the data set with HeLa Kyoto [1] (cell cycle stage: G1/S) and 48.9 °C in the data set with HeLa Kyoto [1] (cell cycle stage: mitosis). In addition, the “solubility change mitosis (log2)” value in the data set with HeLa Kyoto [2] was -0.175. The thermal stability score was determined as 0.328 with HeLa Kyoto [3] (setting [5]) and 1.95 with HeLa Kyoto [3] (cell cycle stage: mitosis). In addition, the “solubility in G1/S (log2)” value with HeLa Kyoto [4] was -0.181.
Consider “MEAARTAVLRVKRKRSAEPAEALVLACKRLRSDAVESAAQKTSEGLERAAENNVFHLVATVCSQEEPVQPLLREVLRPSRDSQQRVRRNLRASAREVRQEGRYRVLSSRRSLGTTSSGQESEYTPGNPEAAGNSGFQLLDLVHEEGEPEAASAGSCKTSDPDVILCNSVELIRERLTVSEDGPGVRRQEEQKHDDYVYDIYYLETATPGWIENILSVQPYSQEWELVNDDQEPEDIYDDEDDENSENNWRNEYPEEESSDGDEDSRGSADYNSLSEEERGSSRQRMWSKYPLDVQKEFGYDSPHDLDSD [SLC7A6OS]”, for which the melting temperature in the data set with HeLa Kyoto [1] (cell cycle stage: G1/S) amounted to 52.4 °C; with HeLa Kyoto [1] (cell cycle stage: mitosis), 54 °C. Further, the “solubility change mitosis (log2)” value in the data set on HeLa Kyoto [2] was -0.117. Besides, the thermal stability score with HeLa Kyoto [3] (setting [5]) was -0.0342; in the data set with HeLa Kyoto [3] (cell cycle stage: mitosis) it was 0.677. The “solubility in G1/S (log2)” value in the data set on HeLa Kyoto [4] was found to be 0.343.
